Data as given in PMC3406060.

Legend:
[1] = biological target: IRB homodimer (IRB-Luc/IRB-YFP) (UniProt P06213)
[2] = biological target: IRA/IGF1R hybrid receptor (IRA-Luc/IGF1R-YFP) (UniProt P06213)
[3] = biological target: IRB/IGF1R hybrid receptor (IRB-Luc/IGF1R-YFP) (UniProt P06213)
[4] = biological target: IRA homodimer (IRA-Luc/IRA-YFP) (UniProt P06213)
[5] = biological target: insulin receptor (IR), endogenous in MCF-7 and MDA-MB231 cells (human (endogenous in MCF-7 and MDA-MB231)) (UniProt P06213)
[6] = biological target: IRB homodimer (IRB-Luc/IRB-YFP) (UniProt P06213); remark: listed apart in the source
[7] = biological target: IRA/IGF1R hybrid receptor (IRA-Luc/IGF1R-YFP) (UniProt P06213); remark: listed apart in the source
[8] = biological target: IRB/IGF1R hybrid receptor (IRB-Luc/IGF1R-YFP) (UniProt P06213); remark: listed apart in the source
[9] = biological target: IRA homodimer (IRA-Luc/IRA-YFP) (UniProt P06213); remark: listed apart in the source

| Substance | EC50 of ligand-induced BRET (Luc/YFP on the two ß-subunits) of partially purified receptors [1] [nM] | EC50 of ligand-induced BRET (Luc/YFP on the two ß-subunits) of partially purified receptors [2] [nM] | EC50 of ligand-induced BRET (Luc/YFP on the two ß-subunits) of partially purified receptors [3] [nM] | EC50 of ligand-induced BRET (Luc/YFP on the two ß-subunits) of partially purified receptors [4] [nM] | EC50 of PIP3 production (BRET, Luc-Akt-PH and membrane YFP) in living MDA-MB231 cells [5] [nM] | EC50 of ligand-induced BRET (Luc/YFP on the two ß-subunits) of partially purified receptors, series with M1 and M2 [6] [nM] | EC50 of ligand-induced BRET (Luc/YFP on the two ß-subunits) of partially purified receptors, series with M1 and M2 [7] [nM] | EC50 of ligand-induced BRET (Luc/YFP on the two ß-subunits) of partially purified receptors, series with M1 and M2 [8] [nM] | EC50 of ligand-induced BRET (Luc/YFP on the two ß-subunits) of partially purified receptors, series with M1 and M2 [9] [nM] |
| --- | --- | --- | --- | --- | --- | --- | --- | --- | --- |
| detemir (B29Lys(e-tetradecanoyl),desB30)-insulin) (ligand) | 5.24 | 335 | 175 | 5.13 | 2.3 |  |  |  |  |
| Glargine metabolite M1 (A21Gly-insulin) (ligand) |  |  |  |  |  | 9.64 | 225 | 147 | 16.7 |
| glulisine (B3Lys,B29Glu-insulin) (ligand) | 1.64 | 183 | 107 | 1.61 | 0.84 |  |  |  |  |

Results, then the substance that gave them:

| EC50 of ligand-induced BRET (Luc/YFP on the two ß-subunits) of partially purified receptors [1] [nM] | EC50 of ligand-induced BRET (Luc/YFP on the two ß-subunits) of partially purified receptors [2] [nM] | EC50 of ligand-induced BRET (Luc/YFP on the two ß-subunits) of partially purified receptors [3] [nM] | EC50 of ligand-induced BRET (Luc/YFP on the two ß-subunits) of partially purified receptors [4] [nM] | EC50 of PIP3 production (BRET, Luc-Akt-PH and membrane YFP) in living MDA-MB231 cells [5] [nM] | EC50 of ligand-induced BRET (Luc/YFP on the two ß-subunits) of partially purified receptors, series with M1 and M2 [6] [nM] | EC50 of ligand-induced BRET (Luc/YFP on the two ß-subunits) of partially purified receptors, series with M1 and M2 [7] [nM] | EC50 of ligand-induced BRET (Luc/YFP on the two ß-subunits) of partially purified receptors, series with M1 and M2 [8] [nM] | EC50 of ligand-induced BRET (Luc/YFP on the two ß-subunits) of partially purified receptors, series with M1 and M2 [9] [nM] | Substance |
| --- | --- | --- | --- | --- | --- | --- | --- | --- | --- |
| 50 | 3.01 | 2.87 | 34.4 |  | 130 | 4.23 | 3.05 | 50.6 | IGF1 (from UniProt P05019 49-118) (ligand) |
|  |  |  |  |  | 6.31 | 315 | 169 | 13.8 | Glargine metabolite M2 (A21Gly,B30desThr-insulin) (ligand) |
